Data taken from the supplement of paper PMC10065799, “High-throughput profiling of sequence recognition by tyrosine kinases and SH2 domains using bacterial peptide display” (eLife, 2023).

How the values were obtained:
MERTK = MERTK (UniProt Q12866); test: phosphorylation enrichment, bacterial display (enrichment ratio); higher = better substrate or ligand; peptides without Tyr show the background
c-Abl (mouse) = test: as above
FGFR3 = FGFR3 (UniProt P22607); test: as above
Jak2 = Jak2 (UniProt O60674); test: as above
AncSZ = test: as above
EPHB2 = EPHB2 (UniProt P29323); test: as above
EPHB1 = EPHB1 (UniProt P54762); test: as above
Hck = Hck (UniProt P08631); test: as above
Fyn = Fyn (UniProt P06241); test: as above
Fes = Fes (UniProt P07332); test: as above
FGFR1 = FGFR1 (UniProt P11362); test: as above
Fer (mouse) = test: as above
c-Src = test: as above
Grb2 SH2 = Grb2 SH2 (UniProt P62993); test: SH2 binding enrichment of the phosphorylated peptide, bacterial display (enrichment ratio); higher = better substrate or ligand; peptides without Tyr show the background
c-Src SH2 = test: as above
SHP2-C SH2 = test: as above
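For SH2 binding enrichment of the phosphorylated peptide, bacterial display in this document: peptide library displayed on the E. coli surface as eCPX fusions, selected cells deep-sequenced, score is each peptide's frequency after selection divided by its frequency in the input.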
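For phosphorylation enrichment, bacterial display in this document: 11-residue human phosphosite peptides and single-mutation variants displayed on the E. coli surface, counted by deep sequencing, each peptide's frequency after selection divided by its frequency in the unselected input library; frequency after pTyr selection over input frequency; kinase dosed for 20-30% of maximal phosphorylation in three min.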

FGFR1, sequence (P11362 whole entry, looked up): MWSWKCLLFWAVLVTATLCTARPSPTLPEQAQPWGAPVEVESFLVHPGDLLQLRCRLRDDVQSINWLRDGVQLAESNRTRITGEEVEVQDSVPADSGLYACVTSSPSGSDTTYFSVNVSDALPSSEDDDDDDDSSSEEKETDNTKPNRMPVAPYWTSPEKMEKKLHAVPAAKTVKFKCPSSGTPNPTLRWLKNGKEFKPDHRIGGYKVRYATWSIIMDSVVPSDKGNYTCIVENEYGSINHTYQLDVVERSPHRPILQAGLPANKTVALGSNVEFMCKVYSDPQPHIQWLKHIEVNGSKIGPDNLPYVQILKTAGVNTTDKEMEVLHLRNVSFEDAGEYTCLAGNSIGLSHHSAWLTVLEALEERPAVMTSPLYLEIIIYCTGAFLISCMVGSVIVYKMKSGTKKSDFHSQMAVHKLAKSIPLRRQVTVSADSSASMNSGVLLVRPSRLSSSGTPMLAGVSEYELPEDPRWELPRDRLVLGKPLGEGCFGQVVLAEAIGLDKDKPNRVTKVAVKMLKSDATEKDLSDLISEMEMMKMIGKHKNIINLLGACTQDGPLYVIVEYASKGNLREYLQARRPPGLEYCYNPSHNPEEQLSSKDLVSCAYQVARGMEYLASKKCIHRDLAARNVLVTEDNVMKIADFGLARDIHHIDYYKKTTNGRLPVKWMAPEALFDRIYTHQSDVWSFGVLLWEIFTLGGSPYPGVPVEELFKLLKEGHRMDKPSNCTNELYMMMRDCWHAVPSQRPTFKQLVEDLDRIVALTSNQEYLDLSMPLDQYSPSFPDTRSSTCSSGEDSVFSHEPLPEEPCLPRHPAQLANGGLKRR
Hck, sequence (P08631 whole entry, looked up): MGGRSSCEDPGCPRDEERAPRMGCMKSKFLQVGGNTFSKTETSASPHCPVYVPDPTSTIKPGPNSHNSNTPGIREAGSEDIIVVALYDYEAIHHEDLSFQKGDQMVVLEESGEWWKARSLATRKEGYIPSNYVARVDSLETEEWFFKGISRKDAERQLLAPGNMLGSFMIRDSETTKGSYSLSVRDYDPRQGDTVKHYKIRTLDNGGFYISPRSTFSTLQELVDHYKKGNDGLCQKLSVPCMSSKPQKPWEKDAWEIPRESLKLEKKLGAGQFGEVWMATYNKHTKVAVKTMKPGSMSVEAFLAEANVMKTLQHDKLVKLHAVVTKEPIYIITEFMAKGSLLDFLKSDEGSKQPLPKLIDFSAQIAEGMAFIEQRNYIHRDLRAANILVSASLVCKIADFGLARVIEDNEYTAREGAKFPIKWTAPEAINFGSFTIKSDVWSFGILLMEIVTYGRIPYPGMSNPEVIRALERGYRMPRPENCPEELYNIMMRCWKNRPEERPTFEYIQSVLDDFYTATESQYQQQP
EPHB1, sequence (P54762 whole entry, looked up): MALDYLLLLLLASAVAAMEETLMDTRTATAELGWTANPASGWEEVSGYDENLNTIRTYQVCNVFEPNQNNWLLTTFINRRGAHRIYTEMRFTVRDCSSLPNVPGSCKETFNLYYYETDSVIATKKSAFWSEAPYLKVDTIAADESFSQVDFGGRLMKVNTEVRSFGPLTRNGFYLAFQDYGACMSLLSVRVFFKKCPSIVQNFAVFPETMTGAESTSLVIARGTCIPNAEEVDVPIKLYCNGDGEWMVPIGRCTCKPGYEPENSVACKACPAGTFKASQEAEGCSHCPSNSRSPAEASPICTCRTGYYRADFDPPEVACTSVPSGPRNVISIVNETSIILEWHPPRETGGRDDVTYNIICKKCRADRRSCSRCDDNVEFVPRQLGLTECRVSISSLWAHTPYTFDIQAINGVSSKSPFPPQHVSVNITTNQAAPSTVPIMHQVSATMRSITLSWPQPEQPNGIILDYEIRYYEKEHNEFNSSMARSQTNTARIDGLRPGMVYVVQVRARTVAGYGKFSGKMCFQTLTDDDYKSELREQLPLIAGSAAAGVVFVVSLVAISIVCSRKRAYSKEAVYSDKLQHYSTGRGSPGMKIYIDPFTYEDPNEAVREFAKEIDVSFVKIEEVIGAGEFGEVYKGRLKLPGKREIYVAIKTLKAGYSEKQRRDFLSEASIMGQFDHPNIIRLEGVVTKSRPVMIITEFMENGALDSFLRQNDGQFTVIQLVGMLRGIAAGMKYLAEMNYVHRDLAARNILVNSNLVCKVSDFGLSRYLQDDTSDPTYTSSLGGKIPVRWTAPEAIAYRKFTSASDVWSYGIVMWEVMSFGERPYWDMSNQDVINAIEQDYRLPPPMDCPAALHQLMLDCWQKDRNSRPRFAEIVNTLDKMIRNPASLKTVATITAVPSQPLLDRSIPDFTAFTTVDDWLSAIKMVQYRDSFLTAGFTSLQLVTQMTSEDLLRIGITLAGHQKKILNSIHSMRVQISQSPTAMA
EPHB2, sequence (P29323 whole entry, looked up): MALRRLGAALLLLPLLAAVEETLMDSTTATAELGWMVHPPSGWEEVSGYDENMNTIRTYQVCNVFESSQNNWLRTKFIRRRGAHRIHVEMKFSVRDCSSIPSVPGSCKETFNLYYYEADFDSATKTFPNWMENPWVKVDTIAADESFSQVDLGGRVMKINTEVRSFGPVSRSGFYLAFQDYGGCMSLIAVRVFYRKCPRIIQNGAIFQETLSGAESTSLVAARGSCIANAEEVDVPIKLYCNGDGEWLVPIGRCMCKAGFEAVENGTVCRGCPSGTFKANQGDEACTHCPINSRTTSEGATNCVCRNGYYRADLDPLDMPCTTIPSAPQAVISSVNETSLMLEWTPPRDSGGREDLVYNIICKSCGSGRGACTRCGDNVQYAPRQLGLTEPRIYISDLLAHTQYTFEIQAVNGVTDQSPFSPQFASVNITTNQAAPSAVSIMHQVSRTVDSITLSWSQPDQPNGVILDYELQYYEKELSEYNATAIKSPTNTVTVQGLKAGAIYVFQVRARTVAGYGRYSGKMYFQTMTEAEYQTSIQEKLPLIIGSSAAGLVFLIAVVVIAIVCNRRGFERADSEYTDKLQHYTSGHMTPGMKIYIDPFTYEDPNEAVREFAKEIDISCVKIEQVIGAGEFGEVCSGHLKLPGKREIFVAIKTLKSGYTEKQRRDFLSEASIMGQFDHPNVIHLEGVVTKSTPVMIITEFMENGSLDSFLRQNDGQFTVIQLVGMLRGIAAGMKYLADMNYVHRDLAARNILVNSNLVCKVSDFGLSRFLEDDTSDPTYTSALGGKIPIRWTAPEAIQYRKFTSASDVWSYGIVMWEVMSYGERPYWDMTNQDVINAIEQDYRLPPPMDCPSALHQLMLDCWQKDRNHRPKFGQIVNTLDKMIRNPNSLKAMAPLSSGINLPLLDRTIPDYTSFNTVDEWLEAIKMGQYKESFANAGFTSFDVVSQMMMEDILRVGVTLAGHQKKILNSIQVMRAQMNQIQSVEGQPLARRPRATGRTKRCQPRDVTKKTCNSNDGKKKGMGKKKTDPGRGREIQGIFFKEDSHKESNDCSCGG
Jak2, sequence (O60674 whole entry, looked up): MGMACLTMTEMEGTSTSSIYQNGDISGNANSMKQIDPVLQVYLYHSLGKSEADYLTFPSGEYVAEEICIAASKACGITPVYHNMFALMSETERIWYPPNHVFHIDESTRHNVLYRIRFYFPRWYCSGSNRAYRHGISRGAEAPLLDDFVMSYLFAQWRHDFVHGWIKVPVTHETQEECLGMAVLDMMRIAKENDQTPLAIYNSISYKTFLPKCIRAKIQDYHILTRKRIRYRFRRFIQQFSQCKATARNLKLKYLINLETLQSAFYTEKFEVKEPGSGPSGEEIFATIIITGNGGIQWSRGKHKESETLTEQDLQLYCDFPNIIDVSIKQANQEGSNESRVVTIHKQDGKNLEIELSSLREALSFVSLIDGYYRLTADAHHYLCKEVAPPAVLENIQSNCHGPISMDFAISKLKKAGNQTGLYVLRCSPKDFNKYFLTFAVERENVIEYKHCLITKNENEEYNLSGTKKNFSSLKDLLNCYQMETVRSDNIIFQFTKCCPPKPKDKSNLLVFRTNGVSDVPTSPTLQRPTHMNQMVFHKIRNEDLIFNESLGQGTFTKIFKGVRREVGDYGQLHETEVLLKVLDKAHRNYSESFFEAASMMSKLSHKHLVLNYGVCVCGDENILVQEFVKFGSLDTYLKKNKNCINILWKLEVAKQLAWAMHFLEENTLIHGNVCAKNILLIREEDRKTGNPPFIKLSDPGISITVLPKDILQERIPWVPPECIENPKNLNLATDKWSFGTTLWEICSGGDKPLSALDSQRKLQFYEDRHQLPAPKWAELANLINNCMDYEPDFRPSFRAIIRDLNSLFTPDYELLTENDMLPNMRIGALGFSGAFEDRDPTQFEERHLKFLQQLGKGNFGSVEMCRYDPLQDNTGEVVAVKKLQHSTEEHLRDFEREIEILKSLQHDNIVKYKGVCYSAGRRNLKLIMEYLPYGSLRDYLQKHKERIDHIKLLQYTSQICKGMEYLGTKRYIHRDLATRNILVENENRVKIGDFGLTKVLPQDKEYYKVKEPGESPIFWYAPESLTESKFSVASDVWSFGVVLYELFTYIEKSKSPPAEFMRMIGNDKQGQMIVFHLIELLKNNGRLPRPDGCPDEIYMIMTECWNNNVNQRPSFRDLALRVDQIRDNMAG
Grb2 SH2, sequence (P62993 whole entry, looked up): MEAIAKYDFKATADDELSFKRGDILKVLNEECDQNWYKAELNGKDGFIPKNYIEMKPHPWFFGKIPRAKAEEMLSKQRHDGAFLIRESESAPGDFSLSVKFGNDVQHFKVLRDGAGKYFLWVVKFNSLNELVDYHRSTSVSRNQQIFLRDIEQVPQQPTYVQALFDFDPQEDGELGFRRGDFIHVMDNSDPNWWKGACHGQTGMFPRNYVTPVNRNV

Sequence | phosphorylation enrichment (MERTK) | phosphorylation enrichment (c-Abl (mouse)) | phosphorylation enrichment (FGFR3) | phosphorylation enrichment (Jak2) | phosphorylation enrichment (AncSZ) | phosphorylation enrichment (EPHB2) | phosphorylation enrichment (EPHB1) | phosphorylation enrichment (Hck) | phosphorylation enrichment (Fyn) | phosphorylation enrichment (Fes) | phosphorylation enrichment (FGFR1) | phosphorylation enrichment (Fer (mouse)) | phosphorylation enrichment (c-Src) | SH2 binding enrichment (Grb2 SH2) | SH2 binding enrichment (c-Src SH2) | SH2 binding enrichment (SHP2-C SH2)
MAFDRYVAICS [OR8D4_Y123_C120Y_YF] | 0.507 | 0.78 | 0.726 | 1.07 | 1.15 | 0.762 | 0.905 | 0.665 | 0.515 | 1.14 | 0.463 | 0.563 | 0.489 | 0.724 | 1.08 | 0.64
ADLTEYLSTHY [UQCRC1_Y219] | 0.462 | 0.649 | 0.697 | 0.908 | 1.01 | 0.622 | 0.58 | 0.555 | 0.549 | 0.972 | 0.52 | 0.553 | 0.625 | 1.13 | 0.638 | 0.716
HLAQRYLIWEC [SCN5A_Y694_R689H] | 0.533 | 0.929 | 1.26 | 1.02 | 1.62 | 0.944 | 1.03 | 0.79 | 0.953 | 1.65 | 0.788 | 0.616 | 0.503 | 0.965 | 0.644 | 0.872
DSFATYFRWVL [H2BW1_Y84_R87W] | 4.5 | 1.04 | 1.98 | 5.48 | 1.53 | 3.54 | 1.85 | 5.6 | 2.76 | 1.47 | 1.98 | 2.46 | 3.21 | 1.28 | 0.953 | 1.32
LARDIYKNDYY [ROS1_Y2110] | 0.426 | 0.462 | 2.19 | 0.752 | 1.1 | 0.782 | 0.953 | 0.712 | 0.854 | 0.828 | 3.15 | 0.369 | 1.42 | 1.02 | 0.881 | 0.722
NRLNDYIFSFD [RARS1_Y516] | 0.475 | 0.789 | 0.729 | 0.977 | 1.09 | 0.538 | 0.538 | 0.469 | 0.461 | 1.03 | 0.721 | 0.424 | 0.555 | 1.15 | 0.506 | 0.778
IEEGTYGVAYR [CDK11B_Y449_V452A] | 2.22 | 0.836 | 0.635 | 0.928 | 1.24 | 2.44 | 0.686 | 5.91 | 7.54 | 1 | 0.494 | 5.71 | 5.77 | 0.681 | 0.471 | 0.662
CDIARYIVSQL [MAST2_Y461_P459A] | 0.43 | 0.667 | 0.733 | 0.827 | 0.919 | 0.542 | 0.594 | 0.559 | 0.447 | 1.12 | 0.553 | 0.505 | 0.478 | 0.866 | 0.578 | 0.793
AAVDEYLEYRR [FAM221A_Y17] | 0.469 | 0.698 | 0.522 | 1.21 | 1.1 | 0.477 | 0.531 | 0.863 | 0.62 | 1 | 0.513 | 0.401 | 0.925 | 0.846 | 0.539 | 1.17
PVVKLYATDGR [RP1_Y199] | 0.451 | 0.781 | 0.802 | 0.781 | 0.781 | 0.78 | 0.745 | 0.554 | 0.601 | 1.01 | 0.648 | 0.575 | 0.576 | 0.876 | 0.569 | 0.558
YTDPYYDYEIE [ZC3H18_Y372_A368T] | 1.31 | 0.871 | 7.56 | 1.31 | 2.13 | 1.06 | 1.39 | 0.967 | 1.96 | 1.27 | 9.65 | 1.22 | 2.94 | 0.822 | 2.02 | 0.494
TSYSGYRYHRH [NKAPL_Y94] | 0.382 | 0.46 | 0.433 | 0.439 | 0.52 | 0.42 | 0.536 | 0.628 | 0.891 | 0.501 | 0.407 | 0.418 | 0.555 | 0.985 | 0.649 | 1.24
SGGGSYGSGGG [KRT1_Y539] | 0.349 | 0.512 | 0.372 | 0.599 | 0.626 | 0.282 | 0.312 | 0.346 | 0.412 | 0.491 | 0.351 | 0.356 | 0.271 | 0.526 | 0.444 | 0.608
ADKSAYLMGLN [MYH7_Y386] | 0.502 | 0.467 | 0.579 | 0.67 | 0.625 | 0.465 | 0.405 | 0.524 | 0.543 | 0.671 | 0.526 | 0.549 | 0.535 | 0.88 | 0.467 | 0.793
RAEIVYKSPVV [MAPT_Y711_G706R] | 0.415 | 16.4 | 0.857 | 0.779 | 0.995 | 0.507 | 0.663 | 0.674 | 0.482 | 1.46 | 0.783 | 0.363 | 0.723 | 0.869 | 0.452 | 0.765
RIVRKYKKVRF [F8_Y442_G439V] | 0.824 | 0.687 | 0.765 | 0.65 | 0.964 | 0.84 | 0.699 | 0.547 | 0.823 | 0.78 | 0.647 | 0.93 | 0.87 | 0.652 | 0.477 | 0.503
SRVTQYERDFE [SNX1_Y463] | 0.379 | 0.844 | 0.611 | 0.635 | 0.837 | 0.486 | 0.428 | 0.476 | 0.46 | 0.954 | 0.501 | 0.419 | 0.396 | 0.854 | 0.697 | 0.77

Sequence | phosphorylation enrichment (MERTK) | phosphorylation enrichment (c-Abl (mouse)) | phosphorylation enrichment (FGFR3) | phosphorylation enrichment (Jak2) | phosphorylation enrichment (AncSZ) | phosphorylation enrichment (EPHB2) | phosphorylation enrichment (EPHB1) | phosphorylation enrichment (Hck) | phosphorylation enrichment (Fyn) | phosphorylation enrichment (Fes) | phosphorylation enrichment (FGFR1) | phosphorylation enrichment (Fer (mouse)) | phosphorylation enrichment (c-Src) | SH2 binding enrichment (Grb2 SH2) | SH2 binding enrichment (c-Src SH2) | SH2 binding enrichment (SHP2-C SH2)
INPIIYAFVGG [CCR5_Y297_E302G] | 8.42 | 14.4 | 3.51 | 1.55 | 1.14 | 9.68 | 11.5 | 6.35 | 6.26 | 2.1 | 4.39 | 6.66 | 5.05 | 0.746 | 0.491 | 0.57
FEKFLYFLPAS [DYNC2H1_Y346_H341Y_YF] | 1.95 | 0.896 | 0.852 | 2.67 | 1.5 | 0.735 | 0.8 | 0.884 | 0.733 | 1.48 | 0.474 | 0.55 | 0.76 | 0.84 | 0.544 | 0.759
HAKKNYGNSSV [HDX_Y197] | 0.355 | 0.508 | 0.281 | 0.396 | 0.398 | 0.162 | 0.316 | 0.387 | 0.262 | 0.409 | 0.406 | 0.407 | 0.355 | 1.04 | 0.414 | 0.69
QMQAAYQKAVA [HBD_Y131_V134A] | 0.368 | 0.451 | 0.508 | 0.635 | 0.576 | 0.292 | 0.583 | 0.449 | 0.47 | 0.798 | 0.652 | 0.405 | 0.307 | 0.893 | 0.42 | 0.76
SILTVYSKDNY [PANK2_Y400_A398T] | 0.383 | 0.639 | 0.594 | 0.715 | 0.678 | 0.407 | 0.535 | 0.449 | 0.442 | 0.91 | 0.452 | 0.388 | 0.538 | 0.856 | 0.676 | 0.679
FSNVLYRPRGA [TMIGD2_Y197_YF] | 0.418 | 0.611 | 0.43 | 0.478 | 0.695 | 0.526 | 0.415 | 0.41 | 0.437 | 0.845 | 0.388 | 0.479 | 0.477 | 0.647 | 0.416 | 0.638
EHAGEYGAEAL [HBA1_Y25_A20E] | 0.455 | 0.612 | 0.681 | 0.693 | 0.832 | 0.543 | 0.423 | 0.592 | 0.489 | 0.896 | 0.595 | 0.427 | 0.468 | 0.865 | 0.674 | 0.769
SAASSYSFSDL [EMD_Y59] | 0.498 | 0.753 | 0.666 | 0.874 | 0.839 | 0.47 | 0.508 | 0.468 | 0.477 | 0.951 | 0.434 | 0.478 | 0.455 | 0.846 | 0.544 | 0.598
AAARPYHIQKW [ACSBG1_Y677] | 0.377 | 0.673 | 0.584 | 0.682 | 0.601 | 0.465 | 0.468 | 0.543 | 0.371 | 0.675 | 0.462 | 0.279 | 0.62 | 1.41 | 1.19 | 1.27
KSIQLYDTPFE [SHB_Y297_G293S_YF] | 6.02 | 1.29 | 0.683 | 0.9 | 1.18 | 18 | 12.7 | 2.17 | 1.01 | 1 | 0.518 | 3.47 | 0.784 | 0.766 | 2.03 | 0.802
PSSNLYFRWLT [CNGA3_Y168_YF] | 4.73 | 0.822 | 1.33 | 3.54 | 1.7 | 0.959 | 0.688 | 1.38 | 0.886 | 1.2 | 1.52 | 1.02 | 1.11 | 1.41 | 0.876 | 1.15
IGEGTYGVLYK [CDK2_Y15_V18L] | 2.63 | 0.587 | 0.632 | 0.635 | 0.817 | 2.75 | 1.55 | 7.04 | 8.4 | 1.04 | 0.416 | 0.808 | 5.6 | 0.635 | 0.381 | 0.514
CTTIHYNFMFN [TP53_Y234_C238F_YF] | 0.595 | 1.04 | 0.945 | 1.34 | 1.27 | 0.684 | 0.786 | 0.569 | 0.52 | 1.61 | 0.676 | 0.789 | 0.586 | 0.975 | 0.756 | 1.08
SQQTYCRVSNM [ABCD1_Y181_Y181C] | 0.738 | 0.851 | 0.683 | 0.623 | 0.799 | 1.98 | 3.76 | 1.41 | 0.751 | 0.88 | 0.587 | 0.526 | 0.718 | 0.897 | 1.01 | 0.616
SLNEGYARDFD [FBP1_Y216] | 0.485 | 0.767 | 0.617 | 0.908 | 1.06 | 0.573 | 0.505 | 0.547 | 0.639 | 0.94 | 0.461 | 0.554 | 0.44 | 1.06 | 0.562 | 0.765
FRQNVYIPGSN [PCDHGA1_Y895_YF] | 0.416 | 0.536 | 0.501 | 0.584 | 0.576 | 0.442 | 0.43 | 0.442 | 0.447 | 0.613 | 0.416 | 0.402 | 0.435 | 0.804 | 0.425 | 0.602
